According to article doi:10.1101/2023.08.18.553786:

How the values were obtained:
[1] = target: CDTb, the cell-binding component of the C. difficile binary toxin (CDT), active wild type (Clostridioides difficile); assay: cryo-EM structure
[2] = target: CDTb^D623A/D734A, active Ca^2+-binding mutant of CDTb (Clostridioides difficile); assay: cryo-EM structure

| Substance | stoichiometry N [1] | stoichiometry N [2] |
| --- | --- | --- |
| CDTb, the cell-binding component of the C. difficile binary toxin (CDT), active wild type (natural protein) | 7 |  |
| CDTb^D623A/D734A, active Ca^2+-binding mutant of CDTb (natural protein) |  | 7 |
